The record followed here is publication PMC5416842, “The ribosome biogenesis factor yUtp23/hUTP23 coordinates key interactions in the yeast and human pre-40S particle and hUTP23 contains an essential PIN domain” (Nucleic Acids Research, 2017).

The labels stand for the following.
T1: GST-yUtp23 WT (Saccharomyces cerevisiae) (UniProt Q12339)
T1 sequence: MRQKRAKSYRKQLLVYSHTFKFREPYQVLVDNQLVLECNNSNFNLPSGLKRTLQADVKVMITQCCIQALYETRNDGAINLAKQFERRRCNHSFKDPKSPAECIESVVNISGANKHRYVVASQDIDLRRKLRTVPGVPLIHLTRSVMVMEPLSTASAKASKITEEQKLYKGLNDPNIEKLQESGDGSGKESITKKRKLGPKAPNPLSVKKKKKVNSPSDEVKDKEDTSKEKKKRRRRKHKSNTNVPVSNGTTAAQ

T2: N-terminally His-tagged hRRP7 (human, UniProt Q9Y3A4 1-280)
T2 construct: hRRP7, human; open reading frame amplified from human cDNA; The legend says that C-terminally truncated forms of the His-tagged hRRP7 protein were also present in the preparation; not shown: His tag, N-terminal, kept
T2 sequence (looked up): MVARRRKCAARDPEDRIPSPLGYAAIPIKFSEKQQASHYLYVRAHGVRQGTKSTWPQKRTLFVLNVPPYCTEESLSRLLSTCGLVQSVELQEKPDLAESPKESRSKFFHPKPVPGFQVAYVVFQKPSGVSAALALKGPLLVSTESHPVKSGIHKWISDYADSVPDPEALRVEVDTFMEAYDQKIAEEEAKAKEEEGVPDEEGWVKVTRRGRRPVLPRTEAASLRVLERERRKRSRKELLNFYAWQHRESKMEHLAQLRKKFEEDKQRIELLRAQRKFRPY

T3: GST-tagged yeast yUtp23 (S. cerevisiae, UniProt Q12339 1-254)
T3 construct: yUtp23, S. cerevisiae; open reading frame amplified from yeast genomic DNA; also called GST-yUtp23
T3 sequence (looked up): T1 sequence

T4: GST-tagged yeast yRrp7 (S. cerevisiae, UniProt P25368 1-297)
T4 construct: yRrp7, S. cerevisiae; open reading frame amplified from yeast genomic DNA; also called GST-yRrp7
T4 sequence (looked up): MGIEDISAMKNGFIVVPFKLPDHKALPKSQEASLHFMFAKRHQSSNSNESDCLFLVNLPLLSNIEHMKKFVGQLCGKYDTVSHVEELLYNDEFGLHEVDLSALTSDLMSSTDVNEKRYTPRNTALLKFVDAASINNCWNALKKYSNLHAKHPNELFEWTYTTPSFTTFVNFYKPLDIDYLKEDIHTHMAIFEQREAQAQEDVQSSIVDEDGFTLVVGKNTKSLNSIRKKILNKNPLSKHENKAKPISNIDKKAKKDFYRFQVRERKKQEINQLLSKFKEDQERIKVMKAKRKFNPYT

B1: GST-tagged yeast yUtp24 (natural protein, S. cerevisiae, UniProt Q05498 1-189, looked up)
chain: MGKAKKTRKFGLVKRTLNTKKDQRLKKNQENIKTKEDPELTRNIPQVSSALFFQYNQAIKPPYQVLIDTNFINFSIQKKVDIVRGMMDCLLAKCNPLITDCVMAELEKLGPKYRIALKLARDPRIKRLSCSHKGTYADDCLVHRVLQHKCYIVATNDAGLKQRIRKIPGIPLMSVGGHAYVIEKLPDVF
notes: yUtp24/Fcf1, S. cerevisiae; open reading frame amplified from yeast genomic DNA; also called Fcf1; yUtp24(Fcf1)
B2: GST-tagged human hUTP23 (natural protein, UniProt Q9BRU9 1-249, looked up)
chain: MKITRQKHAKKHLGFFRNNFGVREPYQILLDGTFCQAALRGRIQLREQLPRYLMGETQLCTTRCVLKELETLGKDLYGAKLIAQKCQVRNCPHFKNAVSGSECLLSMVEEGNPHHYFVATQDQNLSVKVKKKPGVPLMFIIQNTMVLDKPSPKTIAFVKAVESGQLVSVHEKESIKHLKEEQGLVKNTEQSRRKKRKKISGPNPLSCLKKKKKAPDTQSSASEKKRKRKRIRNRSNPKVLSEKQNAEGE
notes: hUTP23, human; open reading frame amplified from human cDNA; also called GST-hUTP23
B3: N-terminally His-tagged hNHP2 (natural protein, human, UniProt Q9NX24 1-153, looked up)
chain: MTKIKADPDGPEAQAEACSGERTYQELLVNQNPIAQPLASRRLTRKLYKCIKKAVKQKQIRRGVKEVQKFVNKGEKGIMVLAGDTLPIEVYCHLPVMCEDRNLPYVYIPSKTDLGAAAGSKRPTCVIMVKPHEEYQEAYDECLEEVQSLPLPL
notes: core box H/ACA protein hNHP2, human; open reading frame amplified from human cDNA; not shown: His tag, N-terminal, kept
B4: N-terminally His-tagged hUTP24 (natural protein, human, UniProt Q9Y324 1-198, looked up)
chain: MGKQKKTRKYATMKRMLSLRDQRLKEKDRLKPKKKEKKDPSALKEREVPQHPSCLFFQYNTQLGPPYHILVDTNFINFSIKAKLDLVQSMMDCLYAKCIPCITDCVMAEIEKLGQKYRVALRIAKDPRFERLPCTHKGTYADDCLVQRVTQHKCYIVATVDRDLKRRIRKIPGVPIMYISNHRYNIERMPDDYGAPRF
notes: hUTP24 (human homologue of yUtp24/Fcf1); open reading frame amplified from human cDNA; not shown: His tag, N-terminal, kept
B5: protein-A-His-tagged yUtp23 (natural protein, S. cerevisiae, UniProt Q12339 1-254, looked up)
chain: T1 sequence
notes: yUtp23, S. cerevisiae; open reading frame amplified from yeast genomic DNA

In series [1] the target is T1, GST-yUtp23 WT (Saccharomyces cerevisiae). Kind of series: EMSA. To be noted: EMSA: 10 mM Tris/HCl pH 7.6, 75 mM NaCl, 2 mM DTT, 100 ng/ul BSA, 0.8 U/ul RNasin, 4.5% glycerol, 0.05% Tween20, 500 ng/ul E. coli tRNA; 10 min 30 C then 10 min. (In general: In EMSA bound probe runs differently from free probe, usually more slowly.)
Series [2] shares this target. Kind of series: competition. As to conditions: EMSA: 10 mM Tris/HCl pH 7.6, 75 mM NaCl, 2 mM DTT, 100 ng/ul BSA, 0.8 U/ul RNasin, 4.5% glycerol, 0.05% Tween20, 500 ng/ul E. coli tRNA; 10 min 30 C then 10 min.
Series [3] deals with GST-yUtp23 WT (Saccharomyces cerevisiae). The experiment in a line: EMSA. To be noted: 100-1000 nM protein; EMSA: 10 mM Tris/HCl pH 7.6, 75 mM NaCl, 2 mM DTT, 100 ng/ul BSA, 0.8 U/ul RNasin, 4.5% glycerol, 0.05% Tween20, 500 ng/ul E. coli tRNA; 10 min 30 C then 10 min.
Series [4] addresses B5. Kind of series: pull-down; GST-tagged yeast bait proteins immobilised on glutathione sepharose (pre-blocked with BSA), incubated with recombinant protein-A-His-tagged yUtp23 for 1 h at 4°C in Buffer NB (20 mM Tris/HCl pH 7.6, 150 mM NaCl, 8.7% glycerol, 0.1% Tween20); five washes; SDS-PAGE, Coomassie staining. As to conditions: both partners purified.
The target in series [5] is T2, N-terminally His-tagged hRRP7. Kind of series: pull-down; GST-tagged hUTP23 immobilised on glutathione sepharose (pre-blocked with BSA), incubated with N-terminally His-tagged recombinant human proteins for 1 h at 4°C in Buffer NB (20 mM Tris/HCl pH 7.6, 150 mM NaCl, 8.7% glycerol, 0.1% Tween20); five washes; SDS-PAGE, immunoblotting with anti-His and anti-GST antibodies. To be noted: both partners purified. (Immunoblotting shows a protein as a band on a membrane.)

In series [6] the target is B2. Described as above. To be noted: both partners purified.
Series [7] addresses T3, GST-tagged yeast yUtp23. The experiment in a line: pull-down; GST-tagged yeast bait proteins immobilised on glutathione sepharose (pre-blocked with BSA), incubated with recombinant protein-A-His-tagged yUtp23 for 1 h at 4°C in Buffer NB (20 mM Tris/HCl pH 7.6, 150 mM NaCl, 8.7% glycerol, 0.1% Tween20); five washes; SDS-PAGE, Coomassie staining. To be noted: both partners purified.

Series [8] concerns the target T4, GST-tagged yeast yRrp7. The series is described as above. As to conditions: both partners purified.

For “GGGUAGGACGCAUGAUCUUGAGCUCUUUUCCUAUACUUUGUCCUAUGGCCAGCUUUCUCCUUAUUACGAAGAGAUUGCGGGAUGUGGGUGCAGAGUGGGAAAAUCUGAGUUCGGUCAUCUUUGUUGUUCGUCCUAC [snR30 IH (nt 398-531)]”, the binding entry in series [1] is given as “no binding”.

With “GGCGUAUUGCUCGAAUAUAUUAGCAUGGAAUAAUAGAAUAGGACGUUUGGUUCUAUUUUGUUGGUUUCUAGGACCAUCGUAAUGAUUAAUAGGGACGGUCGGGGGCAUCAGUAUUCAAUUGUCAGAGGUGAAAUUCUUGGAUUUAUUGAAGACUAACUACUGCGAAAGCAUUUGCCAAGGACGUUUUCA [18S rRNA ES6 fragment (nt 775-963, RNA A)]”, in series [2], the binding entry is “binds”. For the molecule “GGCCGCAGUAUAUUCCUAAACACUAUGAAAUGACCCUAGUUGGUCCAUGAUCAUUUGGGUAAAACCAUACUGCAGACAUCU [snR30 3' HP (nt 531-606)]”, the binding entry in series [1] is given as “no binding”. The Kd is a measure of binding affinity in units of concentration. Lower therefore signals higher affinity. In series [3], snR30 full length (nt 1-606) gave a Kd of 0.3 µM. Take “GGGUAGGACGCAUGAUCUUGAGCUCUUUUCCUAUACUUUGUCCUAUGGCCAGCUUUCUCCUUAUUACGAAGAGAUUGCGGGAUGUGGGUGCAGAGUGGGAAAAUCUGAGUUCGGUCAUCUUUGUUGUUCGUCCUACCGCAGUAUAUUCCUAAACACUAUGAAAUGACCCUAGUUGGUCCAUGAUCAUUUGGGUAAAACCAUACUGCAGACAUCU [snR30 IH + 3' HP (nt 398-606)]”: the binding result in series [1] is recorded as “binds more weakly”. Turning to B1, the binding result in series [4] is listed as “binds”. With B2, the binding result in series [5] is “binds”.

For the molecule B3, in series [6], the binding result is given as “binds”. Still for that read-out and setting: with B4 the entry was “binds”.

As for B5, the binding result in series [7] and in series [8] was “binds” each time.
